According to article PMC12214019, “Mechanistic insights into direct DNA and RNA strand transfer and dynamic protein exchange of SSB and RPA”:

Assays:
[1] = molecular target: T1, RPA (yeast) (Saccharomyces cerevisiae, UniProt P22336;P26754;P26755 1-621;1-273;1-122); test: competition (smFRET strand transfer); 100 nM competitor from dT40-RPA; rate jumps between dT20 and dT30; 10 mM Tris-HCl pH 7.5, 100 or 300 mM NaCl, 10% glycerol, 10 mM Trolox, 0.5% glucose, glucose oxidase/catalase, ~23 C; settings: protein: recombinant; copies: 1;1;1
[2] = molecular target: hRPA (Homo sapiens, UniProt P27694;P15927;P35244 1-616;1-270;1-121); test: competition (smFRET strand transfer); from dT40-hRPA, 100 mM NaCl; 8.3±0.6e4 M-1 s-1; 10 mM Tris-HCl pH 7.5, 100 or 300 mM NaCl, 10% glycerol, 10 mM Trolox, 0.5% glucose, glucose oxidase/catalase, ~23 C; settings: protein: recombinant; copies: 1;1;1
[3] = molecular target: T2, SSB (UniProt P0AGE0 2-178); test: competition (smFRET strand transfer); from dT40-SSB, 100 mM NaCl; 9.8±0.2e4 M-1 s-1; 10 mM Tris-HCl pH 7.5, 100 or 300 mM NaCl, 10% glycerol, 10 mM Trolox, 0.5% glucose, glucose oxidase/catalase, ~23 C; settings: protein: recombinant; chain copies: 4
[4] = molecular target: T1, RPA (yeast); test: competition (smFRET strand transfer); from dT40-RPA, 100 mM NaCl; 8.6±0.3e4 M-1 s-1; 10 mM Tris-HCl pH 7.5, 100 or 300 mM NaCl, 10% glycerol, 10 mM Trolox, 0.5% glucose, glucose oxidase/catalase, ~23 C; settings: protein: recombinant; copies: 1;1;1
[5] = molecular target: T1, RPA (yeast); test: single-molecule FRET; 3 nM, ternary intermediate with dT40-RPA, dwell ~0.27 s, 100 mM NaCl; 10 mM Tris-HCl pH 7.5, 100 or 300 mM NaCl, 10% glycerol, 10 mM Trolox, 0.5% glucose, glucose oxidase/catalase, ~23 C; settings: protein: recombinant; copies: 1;1;1; label: 3' Cy3
[6] = molecular target: T2, SSB; test: single-molecule FRET; 3 nM, ternary intermediate with dT40-SSB, dwell ~0.31 s, 100 mM NaCl; 10 mM Tris-HCl pH 7.5, 100 or 300 mM NaCl, 10% glycerol, 10 mM Trolox, 0.5% glucose, glucose oxidase/catalase, ~23 C; settings: protein: recombinant; chain copies: 4; label: 3' Cy3
[7] = molecular target: T1, RPA (yeast); test: competition (smFRET strand transfer); from dT70-RPA, 100 mM NaCl; 9.1±0.4e4 M-1 s-1; 10 mM Tris-HCl pH 7.5, 100 or 300 mM NaCl, 10% glycerol, 10 mM Trolox, 0.5% glucose, glucose oxidase/catalase, ~23 C; settings: protein: recombinant; copies: 1;1;1
[8] = molecular target: T2, SSB; test: competition (smFRET strand transfer); from dT70-SSB, 300 mM NaCl; 6.1±0.1e4 M-1 s-1; 10 mM Tris-HCl pH 7.5, 100 or 300 mM NaCl, 10% glycerol, 10 mM Trolox, 0.5% glucose, glucose oxidase/catalase, ~23 C; settings: protein: recombinant; chain copies: 4
[9] = molecular target: T1, RPA (yeast); test: competition (smFRET strand transfer); from U50-RPA, 100 mM NaCl; 4.3±0.4e5 M-1 s-1; 10 mM Tris-HCl pH 7.5, 100 or 300 mM NaCl, 10% glycerol, 10 mM Trolox, 0.5% glucose, glucose oxidase/catalase, ~23 C; settings: protein: recombinant; copies: 1;1;1
[10] = molecular target: T2, SSB; test: competition (smFRET strand transfer); from U50-SSB, 100 mM NaCl; 2.1±0.2e5 M-1 s-1; 10 mM Tris-HCl pH 7.5, 100 or 300 mM NaCl, 10% glycerol, 10 mM Trolox, 0.5% glucose, glucose oxidase/catalase, ~23 C; settings: protein: recombinant; chain copies: 4

T1 sequence (P22336 whole entry, chain 1 of 3): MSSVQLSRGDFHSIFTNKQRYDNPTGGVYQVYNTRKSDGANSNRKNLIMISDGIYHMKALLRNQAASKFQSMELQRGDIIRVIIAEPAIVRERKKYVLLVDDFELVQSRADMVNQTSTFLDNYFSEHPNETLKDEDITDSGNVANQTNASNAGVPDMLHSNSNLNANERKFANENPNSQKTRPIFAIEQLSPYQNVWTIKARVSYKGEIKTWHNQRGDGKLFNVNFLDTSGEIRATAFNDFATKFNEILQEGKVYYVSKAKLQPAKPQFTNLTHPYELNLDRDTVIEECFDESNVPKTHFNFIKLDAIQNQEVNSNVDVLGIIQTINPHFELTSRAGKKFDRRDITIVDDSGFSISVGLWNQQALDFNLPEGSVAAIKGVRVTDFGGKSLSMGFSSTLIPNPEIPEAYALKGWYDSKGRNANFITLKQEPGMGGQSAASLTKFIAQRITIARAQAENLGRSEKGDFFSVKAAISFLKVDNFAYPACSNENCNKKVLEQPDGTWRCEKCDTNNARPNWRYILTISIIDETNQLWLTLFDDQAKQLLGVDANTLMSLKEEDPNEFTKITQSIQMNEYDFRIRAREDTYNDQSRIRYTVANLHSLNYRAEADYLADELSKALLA
T1 sequence (P26754 whole entry, chain 2 of 3): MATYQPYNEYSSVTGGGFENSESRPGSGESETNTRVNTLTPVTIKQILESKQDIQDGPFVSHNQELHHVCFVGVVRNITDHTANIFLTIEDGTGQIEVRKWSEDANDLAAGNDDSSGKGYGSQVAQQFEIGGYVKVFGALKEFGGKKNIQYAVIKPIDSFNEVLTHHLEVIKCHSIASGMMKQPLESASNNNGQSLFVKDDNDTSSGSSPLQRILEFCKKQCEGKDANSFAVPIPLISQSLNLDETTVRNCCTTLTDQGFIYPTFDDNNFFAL
T1 sequence (P26755 whole entry, chain 3 of 3): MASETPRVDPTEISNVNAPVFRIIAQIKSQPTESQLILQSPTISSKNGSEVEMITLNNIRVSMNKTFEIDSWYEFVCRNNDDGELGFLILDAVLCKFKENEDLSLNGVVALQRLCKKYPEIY
T2 sequence (P0AGE0 2-178): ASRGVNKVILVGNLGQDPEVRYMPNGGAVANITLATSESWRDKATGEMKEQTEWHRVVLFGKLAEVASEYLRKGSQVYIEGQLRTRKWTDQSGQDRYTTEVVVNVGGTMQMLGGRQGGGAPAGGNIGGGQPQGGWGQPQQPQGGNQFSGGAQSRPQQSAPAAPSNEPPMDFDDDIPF
Sequence of hRPA (P27694 whole entry, chain 1 of 3): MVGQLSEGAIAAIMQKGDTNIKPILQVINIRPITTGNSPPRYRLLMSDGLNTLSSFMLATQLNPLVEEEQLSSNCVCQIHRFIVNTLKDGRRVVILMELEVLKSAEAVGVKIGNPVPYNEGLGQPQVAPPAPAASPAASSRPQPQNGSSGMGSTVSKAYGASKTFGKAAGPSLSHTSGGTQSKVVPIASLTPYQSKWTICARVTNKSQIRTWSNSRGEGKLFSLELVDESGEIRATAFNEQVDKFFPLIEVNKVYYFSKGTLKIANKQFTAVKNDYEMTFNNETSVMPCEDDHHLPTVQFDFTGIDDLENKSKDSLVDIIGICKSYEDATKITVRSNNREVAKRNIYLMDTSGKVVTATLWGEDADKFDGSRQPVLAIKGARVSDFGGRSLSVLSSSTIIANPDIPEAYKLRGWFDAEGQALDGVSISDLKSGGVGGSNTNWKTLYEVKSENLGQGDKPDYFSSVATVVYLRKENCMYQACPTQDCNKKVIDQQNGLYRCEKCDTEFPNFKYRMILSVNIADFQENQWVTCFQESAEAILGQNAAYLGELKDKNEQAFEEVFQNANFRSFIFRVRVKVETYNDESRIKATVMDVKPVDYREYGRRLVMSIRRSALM
Sequence of hRPA (P15927 whole entry, chain 2 of 3): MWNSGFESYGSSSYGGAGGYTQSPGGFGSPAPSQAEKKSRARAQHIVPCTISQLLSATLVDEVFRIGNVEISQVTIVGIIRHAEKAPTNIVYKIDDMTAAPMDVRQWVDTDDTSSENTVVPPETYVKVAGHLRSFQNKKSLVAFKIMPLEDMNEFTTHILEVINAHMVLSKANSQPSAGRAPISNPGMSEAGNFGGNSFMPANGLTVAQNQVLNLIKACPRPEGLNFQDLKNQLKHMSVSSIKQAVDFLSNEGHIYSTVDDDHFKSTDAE
Sequence of hRPA (P35244 whole entry, chain 3 of 3): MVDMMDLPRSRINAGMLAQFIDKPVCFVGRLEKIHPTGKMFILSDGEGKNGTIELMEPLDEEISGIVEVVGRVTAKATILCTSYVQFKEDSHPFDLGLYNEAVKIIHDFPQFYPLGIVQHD

TTTTTTTTTTTTTTTTTTTTTTTTTTTTTT (ssDNA) [dT30]
binding result [1]: binds

TTTTTTTTTTTTTTTTTTTTTTTTTTTTTTTTTTTTTTTT (ssDNA) [dT40]
binding result [2]: binds | binding result [3]: binds | binding result [4]: binds

TTTTTTTTTTTTTTTTTTTTTTTTTTTTTTTTTTTTTTTT (ssDNA) [dT40-Cy3]
binding result [5]: binds | binding result [6]: binds

B1: dT60 (ssDNA)
DNA: TTTTTTTTTTTTTTTTTTTTTTTTTTTTTTTTTTTTTTTTTTTTTTTTTTTTTTTTTTTT
binding result [7]: binds | binding result [8]: binds

UUUUUUUUUUUUUUUUUUUUUUUUUUUUUUUUUUUUUUUUUUUUUUUUUU (ssRNA) [U50]
binding result [9]: binds | binding result [10]: binds
